A word on the Kd: it is the free concentration of one partner at which half of the binding sites on the other are occupied at equilibrium, for simple one-to-one binding. By koff is commonly meant a measure of how fast the partners let go of each other. The kon is a measure of how fast the partners come together. Broadly, the EC50 is the concentration giving half of the maximal effect.

We go through five molecules from patent publication US20260022186A1 (UNIVERSITY OF CHICAGO, published 2026).

Data set [1] addresses T1, Full-length human NT5E (recombinant, secreted) (human).
T1 chain: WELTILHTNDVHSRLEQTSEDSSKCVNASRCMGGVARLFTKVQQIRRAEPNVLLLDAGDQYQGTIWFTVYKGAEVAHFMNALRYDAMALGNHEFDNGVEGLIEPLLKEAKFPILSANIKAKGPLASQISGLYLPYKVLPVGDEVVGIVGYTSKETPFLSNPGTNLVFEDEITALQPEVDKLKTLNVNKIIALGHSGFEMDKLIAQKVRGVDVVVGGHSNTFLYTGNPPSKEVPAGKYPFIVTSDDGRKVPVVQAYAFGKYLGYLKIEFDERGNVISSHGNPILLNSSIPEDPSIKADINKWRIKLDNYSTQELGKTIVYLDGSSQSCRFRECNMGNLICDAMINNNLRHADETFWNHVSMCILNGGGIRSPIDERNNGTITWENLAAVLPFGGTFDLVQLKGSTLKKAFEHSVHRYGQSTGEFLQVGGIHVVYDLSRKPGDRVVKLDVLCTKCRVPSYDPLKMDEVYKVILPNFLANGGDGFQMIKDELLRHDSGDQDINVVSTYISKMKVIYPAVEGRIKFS
Nature of the data set: cell-based or functional assay.

Data set [2] addresses hNT5EDF (substrate binding knock-out variant of human NT5E) (human). Kind of data set: cell-based or functional assay.
The target in data set [3] is T2, hNT5EFF (F417A/F500A mutant of hNT5E) (human, UniProt P21589 27-549).
T2 sequence (looked up): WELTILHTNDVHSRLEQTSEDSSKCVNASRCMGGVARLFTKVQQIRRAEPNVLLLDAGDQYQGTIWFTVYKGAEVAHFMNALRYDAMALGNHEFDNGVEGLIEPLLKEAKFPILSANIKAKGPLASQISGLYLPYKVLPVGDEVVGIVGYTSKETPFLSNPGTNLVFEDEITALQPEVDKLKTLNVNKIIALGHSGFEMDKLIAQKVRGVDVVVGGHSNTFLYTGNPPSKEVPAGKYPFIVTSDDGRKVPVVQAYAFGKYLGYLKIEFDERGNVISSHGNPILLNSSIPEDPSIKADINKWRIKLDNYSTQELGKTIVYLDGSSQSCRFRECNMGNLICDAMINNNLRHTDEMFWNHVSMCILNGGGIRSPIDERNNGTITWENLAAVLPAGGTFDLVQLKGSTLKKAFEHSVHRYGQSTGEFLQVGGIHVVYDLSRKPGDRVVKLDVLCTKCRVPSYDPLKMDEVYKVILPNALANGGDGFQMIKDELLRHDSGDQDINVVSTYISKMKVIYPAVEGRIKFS
Kind of data set: cell-based or functional assay.

Data set [4] deals with T1, Full-length human NT5E (recombinant, …). Kind of data set: SPR, NT5E on NTA chip via His-tag, no ATP. On the technique in general: Surface plasmon resonance follows binding to a sensor surface in real time, without labels.
For data set [5] the target is unchanged. Nature of the data set: SPR, NT5E on NTA chip via His-tag, 1 mM ATP.
The target is the same in data set [6]. Nature of the data set: protein ELISA, immobilised biotinylated NT5E, 1 mM ATP.
The target in data set [7] is T3, Full-length murine NT5E (recombinant, secreted) (murine).
T3 chain: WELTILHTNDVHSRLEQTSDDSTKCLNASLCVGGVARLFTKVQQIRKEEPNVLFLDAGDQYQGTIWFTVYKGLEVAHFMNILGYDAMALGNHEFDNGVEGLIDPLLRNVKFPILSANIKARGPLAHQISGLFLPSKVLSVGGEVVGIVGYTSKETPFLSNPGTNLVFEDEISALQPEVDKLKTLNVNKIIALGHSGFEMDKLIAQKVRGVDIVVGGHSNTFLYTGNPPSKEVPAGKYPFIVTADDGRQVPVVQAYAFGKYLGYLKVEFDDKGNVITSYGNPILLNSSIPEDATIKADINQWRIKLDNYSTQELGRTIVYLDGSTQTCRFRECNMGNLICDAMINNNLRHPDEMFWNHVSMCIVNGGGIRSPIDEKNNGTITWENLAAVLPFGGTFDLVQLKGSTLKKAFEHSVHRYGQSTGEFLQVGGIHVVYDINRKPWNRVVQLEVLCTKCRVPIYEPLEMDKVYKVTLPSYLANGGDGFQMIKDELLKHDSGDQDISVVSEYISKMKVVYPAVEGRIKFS
Nature of the data set: SPR, NT5E on NTA chip via His-tag, 1 mM ATP; SPR, Fab, 1 mM ATP.

The target of data set [8] is T3, Full-length murine NT5E (recombinant, …). Nature of the data set: protein ELISA, immobilised biotinylated NT5E, 1 mM ATP; protein ELISA, Fab, 1 mM ATP (EC50ATP). On the technique in general: An ELISA detects its analyte on a solid surface through an enzyme-linked reagent.
For data set [9], the target named is T1, Full-length human NT5E (recombinant, …). Kind of data set: SPR, no ATP.
Data set [10] addresses T3, Full-length murine NT5E (recombinant, …). Kind of data set: SPR, no ATP.
Data set [11] has as its target T1, Full-length human NT5E (recombinant, …). Kind of data set: SPR, 1 mM ATP.
The target of data set [12] is T3, Full-length murine NT5E (recombinant, …). Nature of the data set: SPR, 1 mM ATP.
Data set [13] shares this target. Nature of the data set: SPR, no ATP; footnote *: data generated poor fits.
For data set [14] the target is unchanged. Nature of the data set: protein ELISA, immobilised biotinylated NT5E, 1 mM ATP.
Data set [15] concerns the target T1, Full-length human NT5E (recombinant, …). Nature of the data set: protein ELISA, immobilised biotinylated NT5E, no ATP (apo).

B1: 1789 Fab (Fab, V domains shown)
VH: EVQLVESGGGLVQPGGSLRLSCAASGFNVSYSSIHWVRQAPGKGLEWVASISSSSGYTYYADSVKGRFTISADTSKNTAYLQMNSLRAEDTAVYYCARNYWGWYPFYYFAFDYWGQGTLVTV
VL: DIQMTQSPSSLSASVGDRVTITCRASQSVSSAVAWYQQKPGKAPKLLIYSASSLYSGVPSRFSGSRSGTDFTLTISSLQPEDFATYYCQQGWDYPITFGQGTKVEIKR
Consider B1, for which the “TM of NT5E by differential scanning fluorimetry with 1789 Fab, 1 mM ATP” value in data set [1] turned out to be 66 ° C; in data set [2] it was 46 ° C; in data set [3] it was 46 ° C. Further, the “TM of NT5E by differential scanning fluorimetry with 1789 Fab, No ATP” value worked out at 48 ° C in data set [1], 48 ° C in data set [2] and 47 ° C in [3]. For the same molecule, the figures for the dissociation constant (Kd) in [4], in data set [5] and in data set [7] were 760 nM, 42 nM and 160 nM, respectively. Moreover, the koff in data set [4] is 0.044 s⁻¹; in data set [5] it was 0.0073 s⁻¹; in [7], 0.014 s⁻¹. In addition, the kon came to 57000 M⁻¹ s⁻¹ in [4], 170000 M⁻¹ s⁻¹ in data set [5] and 85000 M⁻¹ s⁻¹ in data set [7]. Moreover, the results for the EC50 in data set [6] and in [8] were 37 nM and 132 nM, respectively.

B2: 1789 AM42 Fab (Fab, V domains shown)
VH: EVQLVESGGGLVQPGGSLRLSCAASGFNVSYSSIHWVRQAPGKGLEWVAKIRGGHQDTHYADSVKGRFTISADTSKNTAYLQMNSLRAEDTAVYYCARNYWGWYPFYYFAFDYWGQGTLVTV
VL: DIQMTQSPSSLSASVGDRVTITCRASQSVSSAVAWYQQKPGKAPKLLIYSASSLYSGVPSRFSGSRSGTDFTLTISSLQPEDFATYYCQQGWDYPITFGQGTKVEIKR
As to B2, the equilibrium dissociation constant (Kd) in [9] is 38 nM; in data set [10], 63 nM; in [11] it was 11 nM; in [12], 12 nM. Moreover, the koff in data set [9] was 0.0067 s⁻¹; in [10], 0.012 s⁻¹; in [11] it was 0.0036 s⁻¹; in data set [12], 0.0029 s⁻¹. Besides, the kon in data set [9] is 180000 M⁻¹ s⁻¹; in [10] it was 190000 M⁻¹ s⁻¹; in data set [11], 320000 M⁻¹ s⁻¹; in data set [12], 250000 M⁻¹ s⁻¹.

B3: 1789 AM39 Fab (Fab, V domains shown)
VH: EVQLVESGGGLVQPGGSLRLSCAASGFNVSYSSIHWVRQAPGKGLEWVASIRGAGSDTRYADSVKGRFTISADTSKNTAYLQMNSLRAEDTAVYYCARNYWGWYPFYYFAFDYWGQGTLVTV
VL: DIQMTQSPSSLSASVGDRVTITCRASQSVSSAVAWYQQKPGKAPKLLIYSASSLYSGVPSRFSGSRSGTDFTLTISSLQPEDFATYYCQQGWDYPITFGQGTKVEIKR
For B3, the Kd in [9] was found to be 35 nM; in [11], 7.9 nM; in [12], 12 nM; in [13], 99 nM. Besides, the koff in data set [9] turned out to be 0.0099 s⁻¹; in data set [10], 0.013 s⁻¹; in data set [11] it was 0.0039 s⁻¹; in data set [12] it was 0.0035 s⁻¹. The kon in [9] stood at 280000 M⁻¹ s⁻¹; in data set [10], 140000 M⁻¹ s⁻¹; in data set [11], 490000 M⁻¹ s⁻¹; in data set [12] it was 290000 M⁻¹ s⁻¹.

B4: 1789 AM32 Fab (Fab, V domains shown)
VH: EVQLVESGGGLVQPGGSLRLSCAASGFNVSYSSIHWVRQAPGKGLEWVARIRGNEGDTYYADSVKGRFTISADTSKNTAYLQMNSLRAEDTAVYYCARNYWGWYPFYYFAFDYWGQGTLVTV
VL: DIQMTQSPSSLSASVGDRVTITCRASQSVSSAVAWYQQKPGKAPKLLIYSASSLYSGVPSRFSGSRSGTDFTLTISSLQPEDFATYYCQQGWDYPITFGQGTKVEIKR
notes: also called Fab32
Turning to B4, the dissociation constant Kd came out at 86 nM in data set [9], 150 nM in [10], 15 nM in [11] and 15 nM in data set [12]. The off-rate constant (koff) in [9] was found to be 0.0091 s⁻¹; in data set [10], 0.011 s⁻¹; in data set [11], 0.0042 s⁻¹; in data set [12] it was 0.0028 s⁻¹. Also, the association rate constant (kon) stood at 110000 M⁻¹ s⁻¹ in data set [9], 78000 M⁻¹ s⁻¹ in data set [10], 270000 M⁻¹ s⁻¹ in data set [11] and 190000 M⁻¹ s⁻¹ in [12].

B5: 1789 IgG (antibody, V domains shown)
VH: EVQLVESGGGLVQPGGSLRLSCAASGFNVSYSSIHWVRQAPGKGLEWVASISSSSGYTYYADSVKGRFTISADTSKNTAYLQMNSLRAEDTAVYYCARNYWGWYPFYYFAFDYWGQGTLVTVSS
VL: DIQMTQSPSSLSASVGDRVTITCRASQSVSSAVAWYQQKPGKAPKLLIYSASSLYSGVPSRFSGSRSGTDFTLTISSLQPEDFATYYCQQGWDYPITFGQGTKVEIKR
Consider B5, for which the half-maximal effective concentration (EC50) in data set [6] came to 0.86 nM; in data set [14] it was 1.14 nM; in [15], 2.14 nM.
